These results are taken from PMC11143218, “Evolved histone tail regulates 53BP1 recruitment at damaged chromatin” (Nature Communications, 2024).

Non-standard residues stand in square brackets, D forms with d. No end group written: not given here. *: point of attachment. Biotin = O=C1N[C@H]2[C@H](CS[C@H]2CCCCC(=O)*)N1; pS = N[C@@H](COP(=O)(O)O)C(=O)O

The target in the assay is T1, MBP-53BP1 IRIF formation fragment a.a. 1220–1639 (human, UniProt Q12888 1220-1639).
T1 construct: 53BP1, minimal region for IRIF formation, a.a; also called in vitro purified 53BP1 a.a; source: E. coli BL21, purified (amylose resin, maltose elution)
Kind of assay: pull-down; in vitro: MBP-purified protein incubated with 10.5 μg biotinylated peptide and 10 μL streptavidin beads, 1 h at 4 °C; washed three times with NETN; western blot. The following applies: both partners purified.

T1 sequence (Q12888 1220-1639): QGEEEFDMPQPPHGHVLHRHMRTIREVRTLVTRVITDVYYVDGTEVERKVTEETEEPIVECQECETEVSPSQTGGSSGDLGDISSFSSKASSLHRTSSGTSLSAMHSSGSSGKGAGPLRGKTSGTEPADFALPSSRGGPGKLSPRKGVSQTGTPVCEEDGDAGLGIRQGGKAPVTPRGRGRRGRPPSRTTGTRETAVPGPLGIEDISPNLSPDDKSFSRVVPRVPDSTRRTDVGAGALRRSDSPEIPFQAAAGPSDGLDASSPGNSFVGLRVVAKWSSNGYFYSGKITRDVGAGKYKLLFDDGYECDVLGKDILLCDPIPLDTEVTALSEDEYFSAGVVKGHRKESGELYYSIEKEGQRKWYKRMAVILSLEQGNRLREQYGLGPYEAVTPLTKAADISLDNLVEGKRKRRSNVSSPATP

B1: biotinylated phosphorylated S139 H2AX C-terminal tail peptide (peptide)
peptide: Biotin-TSATVGPKAPSGGKKATQA[pS]QEY
notes: also called 23-amino acid phosphorylated H2AX C-terminal tail peptide; γH2AX C-terminal tail; source: synthetic peptide, bought: genscript
B1: the binding result was “binds”.
